{
  "source": "paper PMC2645924",
  "origin": "cited, not measured here",
  "key": {"Cys165": {"target": "Cys165 (UniProt position 166, HPGEVCPAKWK)", "assay": "chemical modification", "conditions": "Reduced mutant proteins"}, "Cys46": {"target": "Cys46 (UniProt position 47, DFTFVCPTELG)", "assay": "chemical modification", "conditions": "Reduced mutant proteins"}, "Cys32": {"target": "Cys32 (UniProt position 33, FWAEWCGPCKM)"}},
  "data": [
    {"substance": "AhpC C46S mutant (only C165 remains) (Salmonella typhimurium; C46S)", "values": [
      {"measurement": "pKa", "setting": "Cys165", "value": 8.7}
    ]},
    {"substance": "AhpC C165S mutant (only C46 remains) (Salmonella typhimurium; C165S)", "values": [
      {"measurement": "pKa", "setting": "Cys46", "value": "less than 5"}
    ]},
    {"substance": "Thioredoxin (Escherichia coli)", "values": [
      {"measurement": "pKa", "setting": "Cys32", "value": "6.7 – 7.1"}
    ]}
  ]
}
